The record followed here is PMC7094404 (Archives of Biochemistry and Biophysics, 2008).

For assay [1], the target named is SARS-CoV main protease Δ(297–306) (SARS-CoV). Put plainly: AUC.
Assay [2] addresses SARS-CoV main protease Δ(298–306) (SARS-CoV). Put plainly: AUC.
Assay [3] deals with SARS-CoV main protease Δ(301–306) (SARS-CoV).
Assay [4] concerns the target SARS-CoV main protease Δ(302–306) (SARS-CoV). Put plainly: AUC.
Assay [5] has as its target SARS-CoV main protease Δ(303–306) (SARS-CoV).
For assay [6] the target is unchanged. Put plainly: AUC.
Assay [7] concerns the target SARS-CoV main protease Δ(304–306) (SARS-CoV).
For assay [8] the target is unchanged. Put plainly: AUC.
The target in assay [9] is SARS-CoV main protease Δ(305–306) (SARS-CoV).
Assay [10] shares this target. As to the kind of experiment: AUC.
Assay [11] has as its target SARS-CoV main protease Δ(306) (SARS-CoV).
Assay [12] shares this target. Put plainly: AUC.

Consider “SARS-CoV main protease Δ(297–306) (domain or fragment)”, for which, in assay [1], the Kd is 393000 nM and the koff turned out to be 123 s⁻¹.
In assay [2], “SARS-CoV main protease Δ(298–306) (domain or fragment)” had a Kd of 313000 nM and an off-rate (koff) of 36 s⁻¹.
In turn, “SARS-CoV main protease Δ(301–306) (domain or fragment)” came in with a catalytic constant kcat for the 11-mer peptide ABZ-…-DNP in assay [3] of 0.025 s⁻¹.
Take “SARS-CoV main protease Δ(302–306) (domain or fragment)”: in assay [4], the koff was 0.01 s⁻¹.
Turning to “SARS-CoV main protease Δ(303–306) (domain or fragment)”, the catalytic constant kcat for the 11-mer peptide ABZ-…-DNP in assay [5] was 0.022 s⁻¹. Also, the equilibrium dissociation constant (Kd) in assay [6] came to 340 nM.
With “SARS-CoV main protease Δ(304–306) (domain or fragment)”, the catalytic constant kcat for the 11-mer peptide ABZ-…-DNP in [7] turned out to be 0.027 s⁻¹. For the same substance, in [8], the koff amounted to 0.01 s⁻¹.
Substance “SARS-CoV main protease Δ(305–306) (domain or fragment)” came in with a catalytic constant kcat for the 11-mer peptide ABZ-…-DNP in assay [9] of 0.039 s⁻¹. Besides, in assay [10], the Kd came to 80 nM and the off-rate (koff) was 0.14 s⁻¹.
The substance “SARS-CoV main protease Δ(306) (domain or fragment)” yielded a catalytic constant kcat for the 11-mer peptide ABZ-…-DNP in [11] of 0.043 s⁻¹. In assay [12], this substance displayed a dissociation constant (Kd) of 100 nM and an off-rate (koff) of 0.6 s⁻¹.
